From the DeepSol protein solubility set

Experiment: soluble on expression in E. coli; label from the status in PepcDB or PDB records
In the case of “MGSDKIHHHHHHMRINHNISALNAWRNISQTQYSMSKTLERLSSGLRINRAGDDAAGLAISEKMRGQIKGLNMAIKNAQDAISLIQTAEGALTEVHSILQRMRELAVQAASDTNTDVDREQIQKEIDQLREEIDRIARTTEFNTKKLLDGKLESFRSQVDAKVVTGGNINVQLGSVSSAAVEGTYVIEVGQFNGAETSELDVKITLFTAGGYSTTVVTITVGSATVGNINFTWDTDVLSINDFGGALPKNEVVDSAVVRVEAIYTSASQLIFQIGANEGHNMVAGIDDMSAAALGLTTVSLDVTTQDAAERAIMVVDAAIHRVSTARAALGAVQNRLEHTISNLGVAAENLTAAESRIRDADMAKEMMEFTKQQILLQSSMAMLAQSNTLPQNVLQLMR”, the “soluble on expression in E. coli” value is reported as “not soluble”.
For “MIPRPIPEPSPDLYTEEEVSKLVHEFYAKARKDAALGPIFEEHVIDWDAHFVQMTNFWSAQLRGTSRFRGAPMPKHIALPELNETLFKRWLQLFRQTTLELGNPLLKQHADTVAEFIAGRLWMGYQMSHFPHREPADLNTSEV”, the “soluble on expression in E. coli” value was “not soluble”.
In the case of “MSLMPRIKPLLVLCAALLTVTPAASADVNSDMNQFFNKLGFASNTTQPGVWQGQAAGYAYGGSLYARTQVKNVQLISMTLPDINAGCGGIDAYLGSFSFINGEQLQRFVKQIMSNAAGYFFDLALQTTVPEIKTAKDFLQKMASDINSMNLSSCQAAQGIIGGLFPRTQVSQQKVCQDIAGESNIFADWAASRQGCTVGGKSDSVRDKASDKDKERVTKNINIMWNALSKNRMFDGNKELKEFVMTLTGSLVFGPNGEITPLSARTTDRSIIRAMMEGGTAKIYHCNDSDKCLKVVADTPVTISRDNALKSQITKLLASIQNKAVSDTPLDDKEKGFISSTTIPVFKYLVDPQMLGVSNSMIYQLTDYIGYDILLQYIQELIQQARAMVATGNYDEAVIEHINDNMNDATRQIAAFQSQVQVQQDALLVVDRQMSYMRQQLSARMLSRYQNNYHFGGSTLEGHHHHHH”, the “soluble on expression in E. coli” value is reported as “not soluble”.
For “MSLGSRNGEKDWENASTTSSVASGTEYTGPKLYKEPSAKSNKHIIQNALAHCCLAGKVNEGQKKKILEEMEKSDANNFLILFRDSGCQFRSLYTYCPETEEINKLTGIGPKSITKKMIEGLYKYNSDRKQFSHIPAKTLSASVDAITIHSHLWQTKRPVTPKKLLPTKEGHHHHHH”, the “soluble on expression in E. coli” value was “soluble”.
In the case of “MPDIVNRKVEHVEIAAFENVDGLSSSTFLNDVILVHQGFPGISFSEINTKTKFFRKEISVPVMVTGMTGGRNELGRINKIIAEVAEKFGIPMGVGSQRVAIEKAEARESFAIVRKVAPTIPIIANLGMPQLVKGYGLKEFQDAIQMIEADAIAVHLNPAQEVFQPEGEPEYQIYALEKLRDISKELSVPIIVKESGNGISMETAKLLYSYGIKNFDTSGQGGTNWIAIEMIRDIRRGNWKAESAKNFLDWGVPTAASIMEVRYSVPDSFLVGSGGIRSGLDAAKAIALGADIAGMALPVLKSAIEGKESLEQFFRKIIFELKAAMMLTGSKDVDALKKTSIVILGKLKEWAEYRGINLSIYEKVRKRE”, the “soluble on expression in E. coli” value is reported as “soluble”.
In the case of “MGSDKIHHHHHHMISDIPFLALLPLGAHEYHGDHLPFETDWIIAEAFAKALTVKTKKQFHIALLPVEKIGYSIEHMDVSGTQTLTFSEAIERWINIGEDCYRKGIKRFLLLNAHGGNSPLMSIVITELRKRFSMLAVATSWTRFGLPHGLMHPSQHHLDIHGGFIETSLMLYLAPEKVHMEKAKNFYNKQADMIANYQYLRAYGPHAFGWTMRDLNLQGAAGKAREATSQAGKAIFSHVLGGLRGLLDDINRFKIDAL”, the “soluble on expression in E. coli” value is reported as “not soluble”.
In the case of “MSLAVNNIIKRIRNIMRQDAGINGDAQRIEQMTWMIFLKVYDTQEETWEYKASRESKTYQSIIPKDLRWRNWAVDEKDGEALTGEALLSFVNEKLFPALKNLPVDANTPRAKSIVQETFADLNQYMKNGTLLRQVVNIVNEIEFDDADDRHTFGDIYEGILKDLQSAGNAGEFYTPRALTDFIVMMLDPKLGETFGDFTSGTGGFLTSALNYMGKSVRSAEDGEKLQNAVVGQEWKPLPYLLSITNLLLHDIEAPNIANCDSLGTNVTDFKETDKVDVIGMNPPYGGSTEDSVKNNFPLRYRSSETADLFIALIMYRLKAGGRCGVIIPDGFLFGTDGAKLALKENLLRKFNLHTIIRLPGSIFSPYTSIATNILFFNNEEAEGCEEGFKTKETWFYRLDMPEGYKHFSKNKPMKVEHTLPIQEWWNDRKEIVSSETGEKSRVFTAQQLLDLNCNFDQCKFPKEEEEILPPAEGHHHHHH”, the “soluble on expression in E. coli” value is reported as “soluble”.
With “IQVFVKNPDGGSYAYAINPNSFILGLKQQIEDQQGLPKKQQQLEFQGQVLQDWLGLGIYGIQDSDTLILSKKKG” the “soluble on expression in E. coli” value was “soluble”.
In the case of “MTIALELQQLKKTYPGGVQALRGIDLQVEAGDFYALLGPNGAGKSTTIGIISSLVNKTSGRVSVFGYDLEKDVVNAKRQLGLVPQEFNFNPFETVQQIVVNQAGYYGVERKEAYIRSEKYLKQLDLWGKRNERARMLSGGMKRRLMIARALMHEPKLLILDEPTAGVDIELRRSMWGFLKDLNDKGTTIILTTHYLEEAEMLCRNIGIIQHGELVENTSMKALLAKLKSETFILDLAPKSPLPKLDGYQYRLVDTATLEVEVLREQGINSVFTQLSEQGIQVLSMRNKANRLEELFVSLVNEKQGDRA”, the “soluble on expression in E. coli” value is reported as “not soluble”.
With “MSCEIVVYPAQDSTTTNIQDISIKNYFKKYGEISHFEAFNDPNSALPLHVYLIKYASSDGKINDAAKAAFSAVRKHESSGCFIMGFKFEVILNKHSILNNIISKFVEINVKKLQKLQENLKKAKEKEAENHHHHHH” the “soluble on expression in E. coli” value was “soluble”.
In the case of “MRVLHVCSELFPLLKTGGLADVIGALPAAQLAEGADVRIILPAFPDLRRGIPETVLVREIDTFAGRVALRYGHYRGIGIYLIDAPALYDRAGSPYHDASLYAYSDNYLRFALLGWMACELACGLDGYWRPEVVHAHDWHAGLTCAYLAARGRPARSVFTVHNLAYQGLFSADHLSELHLPAEFFQIYGLEFYGQISYLKAGLFFADHVTTVSPTYAKEITQPAFGYGMEGLLQALARQGRLTGILNGVDSDIWDPQSDTLLPTRYDAENLQAKAINKTHLQTAMGLQLAENKPIFAVVSRLTVQKGLDLVLEALPELLALGGQLVVLGSGDATLQEAFLAAAAEHSGQVGVQIGYHEAFSHRIIAGSDVILVPSRFEPCGLTQLYGLKYGTLPLVRHTGGLADTVVDCALENLADGSASGFVFNECEAQALVKAIRRAFVLWSRPKHWRHVQRHAMRLDFGWQLAAVDYLSLYRRL”, the “soluble on expression in E. coli” value is reported as “not soluble”.
With “MTNNQKLVGRHKRLAFMKVGTEGTYDRITGFTSLIEGKEAKEYARQYIDEATERTDVVGYATGIEYAFDRYTNNAVHEKIANITDDELLGVDAQVEIVSVDVFEEKAGGKYPARKRTYSVVPDTTGDGTDALIYSGNFKAVSEIVKGYCTTTDKWQTCTFVEGEIPAEALEHHHHHH” the “soluble on expression in E. coli” value was “soluble”.
In the case of “MSLKQYSVKELTKLYKFLVIKANETRKLTLQDKNGIVKSNTDYNGVINRAQLGYDNILDILPSVSGSYSKPKYIISSNLMCYTGITGIYFPFTGEANVNIAIPDLYIPCTVEHEMAHQRGFASEDEANFIAYLTSIKHPNIDFNYSGYILALNYTASALSKVDYNAYVDISAGISDSVRRDLKNESEFWQKYEGKINEISNEFNNSYLKANGVTEGTQSYGKMVDLLLTYYELYPYNEGHHHHHH”, the “soluble on expression in E. coli” value is reported as “soluble”.
In the case of “MGSDKIHHHHHHMKIFNAMFSKVNGGLEQVFLNYIPALSSQGNLVIPIIHPKAEIRNSCPQDHLITVHNFNQHDFFAIHRLKKLIKIHQPDCIITHSYRAAYLFKKTRTKVPKIAVCHVKGHYDFGTDAIIALTEQMRRDIINSGIEERRVFTIPNLIHIPDGLQYREPKNNQIPIIGVCARFAAIKGVDVFINALAELKKRGVAFQAKIAGDGKEKEQYIELIRHHGLEHEITLLGWIEDKESFYKSIDIFCLPSREESFGLVVLESMMHSLPMVLTRLSGPLEIAGNSGCALFVPPEDPVSMADGLERLLRDKDLSKQLALKAFQRVQHYSSTKVAPMLHKVLEKACEINQQ”, the “soluble on expression in E. coli” value is reported as “not soluble”.
For “MGSDKIHHHHHHMGRRSHSRSLSIWTNGVRVGRWTVPARGEMELQYDVDWVRADVGRPLSLSLPFNLQNLPLKGERVANYFDNLLPDSDAIRRRVAERFRTGSVDPFDLLKAIGRDCVGAVQILEDEEIPEGFDRIEGVPLSEEDIERHLIETVTPRAFAAGRDPDADFRISLAGAQEKTAFLWWGGQWLAPRGATSTSHIFKLPLGLVGGRRADFSTSVDNEWLCLKLLKAYGLDVAEASIATFGQQRVLVVERFDRRVAPNGQWLMRLPQEDFCQVEGCSPLRKYENEGGPGLKALFATLRQSVNAAVDMRTLMAAQILFWLLRAPDGHAKNFSIQLLPRGRFQLTRLYDVMSAYPVLGDGANQWSPFEIKLAMALIGKNRHYEMHGIQRRHFNSTAQKVGYGPTAEPIIEDLLARTPAIIAAVQADLPQDFSPRVADSVLGGLAQAAKSLGAMMP”, the “soluble on expression in E. coli” value was “not soluble”.
In the case of “MGHHHHHHSHMAKTYDYLFKLLLIGDSGVGKTCVLFRFSEDAFNSTFISTIGIDFKIRTIELDGKRIKLQIWDTAGQERFRTITTAYYRGAMGIMLVYDITNEKSFDNIRNWIRNIEEHASADVEKMILGNKCDVNDKRQVSKERGEKLALDYGIKFMETSAKANINVENAFFTLARDIKAKMDKKLEGNSPQGSNQGVKITPDQQKRSSFFRCVLL”, the “soluble on expression in E. coli” value is reported as “soluble”.
With “MCMDKNVMWLRERINKVIKALEENNMNGYLVNSKEELISKIEELTNSGDIVACGGSMSLFEAGVIDHLRSGRYEFLDRYKEGLKPEDIKKIYRDAFSSDVYFTSTNAITEEGEIYNVDGNGNRVAAMLYGPDKVIIVAGYNKIVENLSEAIQRNRRISAPANAKRLNKKTPCAKVGNCMDCKSPEKICREYTLIRSQSNSNRIHVIFLNEELGYLEHHHHHH” the “soluble on expression in E. coli” value was “soluble”.
In the case of “MERKMATHFARGILTEGHLISVRLPSQCHQEARNIPPHRQSRFLASRGLLAELMFMLYGIGELPEIVTLPKGKPVFSDKNLPSFSISYAGNMVGVALTTEGECGLDMELQRATRGFHSPHAPDNHTFSSNESLWISKQNDPNEARAQLITLRRSVLKLTGDVLNDDPRDLQLLPIAGRLKCAHVNHVEALCDAEDVLVWSVAVTPTIEKLSVWELDGKHGWKSLPDIHSRANNPTSRMMRFAQLSTVKAFSPN”, the “soluble on expression in E. coli” value is reported as “not soluble”.
For “MDKKVYNTYVSILKNELVVALGCTEPIAIAYAGAKVREVLEAMPDRCEINCSGNIVKNVKGVTVPNSGGMKGIDTAATLGIVGGNVKRILAVLEDITPEQIETTQKLVKEGFCSCGLIEGVENLYIIITAYAGEESATVEIRDYHSNITKIVKNGKIIFSTDDEQSEQSSGPDKSLLNVKDILEFADCVDLSDISEVISRQIECNTAISQEGLNNPWGAQVGRTLLDTFGSDVAIRAKAAAAAGSDARMSGCPMPVVINSGSGNQGMTVSLPIIEYAKEYNISDEGLYRALVAGNLISLHQKKYIGSLSAYCGAVSAACGSGVGIAYMLGASYDEICGIITDTIATIGGMVCDGAKPSCAAKIASAVDCALTAFHLSKNKRVFQPGEGLVKETVEDTIQSIGRMGREGMKATDIEILNIMLEN”, the “soluble on expression in E. coli” value was “not soluble”.
For “MGSDKIHHHHHHAGFIFLPKENETASTTVEEVKWLTYDQAVALSKKNPKPIFIDVYTDWCGWCKTMDKNTFSNHKVAAYLNKRFYSVKLNPEKKDTVHYKGVAMTNGALAGKIFHATSYPTTVYLEGDETLLQPIPGYQAPNDLYRIIHYIGENHYKTTTWDDFSKSFNESAE”, the “soluble on expression in E. coli” value was “not soluble”.
For “MSHSEAGQAASVRRVLAVIPARGGSKGVPAKNLLPVGGVPLVARAVRECRATRLVTDVVVSTDDHAIAAAAREAGAEVVLRPAAIAGDTATSEAAVLHAMDTHEALHGAAVDVVLLVQCTSPFIVREDVDGVVHAIVGKGADTALTVAPFHGFVWRDADDAPGALGAERAAVEGGTDTLVTGTATSGGYGINHDKSFRPRRQDRPQDLLETGAVYGMDATGFREARHRFFGRTELVRTDPARVLEIDDPHDLARARALAPLFDANRPGALPTAEDIDAVVLDFDGTQTDDRVLIDSDGREFVSVHRGDGLGIAALRKSGLTMLILSTEQNPVVAARARKLKIPVLHGIDRKDLALKQWCEEQGIAPERVLYVGNDVNDLPCFALVGWPVAVASAHDVVRGAARAVTTVPGGDGAIREIASWILGPSLDSLDKLEHHHHHH”, the “soluble on expression in E. coli” value was “not soluble”.
